One molecule from patent US11789012B2, “Cell death biomarker” (UCL Business PLC, priority 2016, dated 2023) can be followed below.

One assay concerns BB65RCC. Nature of the assay: rTRAIL viability, renal cell line BB65RCC. The format is cell-based. The note with it: BAP1 wild-type. The source says: (§1) FIG. 8A is a graph showing the effect of rTRAIL on the viability of various cancer cell lines. Bladder (RT4) and Breast (HCC1187) cancer cell lines with nonsense mutations in BAP1 show sensitivity to rTRAIL while renal cell cancer cell lines (769P & RCC10RGB) with missense mutation and wild-type renal (BB65RCC) and bladder cancer (SW1710) cell lines are resistant to TRAIL.

For a further assay, the system named is H2795. Nature of the assay: rTRAIL response, viability assay, H2795. Format: cell-based, Human. The note with it: BAP1 Essential Splice, heterozygous. Here is the method:
(§2) Manual “single dose” combination screening was undertaken using 96 well formats. Cells were plated on day 1 in previously optimized seeding densities in 180 μl if media. On day 2 20 μl of a 10× concentration of […] was added. Cells were then allowed to grow for 72 hrs or 6 days and fixed at the end of the assay. Drug wells were compared to DMSO treated control wells.
(§3) Single agent high throughput 5 point viability screening was undertaken in 384 well formats using robotic liquid handling with fixing with 4% paraformaldehyde and staining for viability with Syto60 nucleic acid dye (Invitrogen) (see below). Single agent dose response curves were derived for each library of 85-95 drugs according to the experiment used, and log IC50 or area under the curve (AUC) metrics were derived for each library compound in each cell line according to a previously derived formula [18].
(§4) Adherent cell lines were seeded 24 hours before drugging. Cells were trypsinised and counted before seeding at the optimal density for the size of well (96 or 384) and duration of assay. 72 hr after drug treatment cells were fixed with 4% paraformaldehyde for 30 minutes. […] Quantification of fluorescent signal was achieved using excitation/emission wavelength of 630/695 […].

The next assay relates to H2803. Nature of the assay: rTRAIL response, viability assay, H2803. The format is cell-based, Human. The following applies: BAP1 Wild-type. On the procedure:
as §2, §3, §4

For the next assay, the system named is H2818. Nature of the assay: Cell death response to rTRAIL after BAP1 shRNA knockdown in H2818. The format is cell-based, Human. The note with it: H2818 BAP1 wild-type line. Here is the method:
(§5) Adherent mesothelioma cell lines were plated in a 96 well plate at approximately 10000 cells per well. Cells were plated and given 1 day to adhere at which time drug was added. After 48 hrs media, including floating cells, was collected from each well. The remaining adherent cells were washed with PBS and mobilised with 0.05% trypsin in EDTA. All cells were collected into tubes containing the previously removed media and pelleted by centrifugation (300 g, 5 minutes). Cells were then re-suspended in 1× Annexin V binding buffer with 10 μl/1 ml concentration of Annexin V-647 antibody (Invitrogen) and incubated for 15 minutes at room temperature. DAPI (41 g/ml) was then added to each sample before flow cytometry analysis as below. Annexin V−/DAPI− cells were judged to be viable, AnnexinV+/DAPI− cells were considered to be undergoing apoptosis (early apoptotic phase), and Annexin V+/DAPI+ cells were considered late apoptotic or necrotic, and recorded as dead.
Lentivirus encoding shRNA targeting BAP1 was generated as per the lentivirus production protocol above. MPM cells (H2818) were transduced and treated with puromycin […] until a pure population was achieved. Immunoblotting was performed to assess efficacy of the shRNA knockdown.

The next assay concerns MSTO-211H. Nature of the assay: rTRAIL response, viability assay, MSTO-211H. The following applies: BAP1 Wild-type. Format: cell-based, Human. Here is the method: as §2, §3, §4
The next assay concerns 769P. Nature of the assay: rTRAIL viability, renal cell cancer cell line 769P. Format: cell-based. The following applies: 769P renal; BAP1 missense mutation.
Text: as §1

The next assay has as its system HCC1187. The assay can be described thus: rTRAIL viability, breast cancer cell line HCC1187. The format is cell-based. The following applies: nonsense mutation in BAP1.
Text: as §1

The subject of another assay is H513. Nature of the assay: rTRAIL response, viability assay, H513. The format is cell-based, Human. On the procedure: as §2, §3, §4
A further assay deals with H2722. The assay can be described thus: rTRAIL response, viability assay, H2722. The following applies: BAP1 HomDel, homozygous. Format: cell-based, Human. On the procedure:
as §2, §3, §4

For a further assay, the system named is NCI-H226. The assay can be described thus: Annexin V/DAPI cell death assay, H226 parental and BAP1-transduced lines. The format is cell-based, Human. Here is the method:
FIG. 5A is an immunoblot for BAP1 protein in BAP1 null mesothelioma lines following transfection with empty vector and BAP1 expression vector. […] FIG. 5C is a graph showing the effect of rTRAIL on cell viability of an untransduced H226 cell line, a BAP1 (transduced) cell line, and a H226 cell line with the NLS deleted.
Untransduced BAP1-negative H226 cells, BAP1-expressing and catalytically dead BAP1-expressing H226 cells were treated with 100 ng/ml of FASL, TRAIL and TNF-alpha for 24 hours and cell death was quantified by Annexin V/DAPI assay. *p<0.05 indicating significant difference between untransduced H226 cells H226 BAP1 expressing cells. NS no significant difference between untransduced H226 cells and BAP1 C91A transduced cells. #p<0.05 indicating significant difference between untransduced H226 cells and BAP1 C91A transduced cells.
as §5

For a further assay, the system named is NCI-H2452. The assay can be described thus: rTRAIL response, viability assay, NCI-H2452. Format: cell-based, Human. The following applies: BAP1 Substitution - Missense, homozygous. On the procedure: as §2, §3, §4
A further assay deals with H2461. Nature of the assay: rTRAIL response, viability assay, H2461. The following applies: BAP1 Deletion - Frameshift, heterozygous. The format is cell-based, Human. On the procedure:
as §2, §3, §4

The subject of a further assay is H2373. Nature of the assay: rTRAIL response, viability assay, H2373. Format: cell-based, Human. The note with it: BAP1 Wild-type. On the procedure:
as §2, §3, §4

The test system of assay [1] is BAP1 mutant cell lines (H2722, H2461, H28 and H2731). The assay can be described thus: Annexin V/DAPI cell death assay, BAP1 mutant cell lines. The format is cell-based, Human. The following applies: TRAIL 0-1000 ng/ml, 24 hours. On the procedure: MPM cell lines were treated with a dose range from 0.5 ng/ml to 100 ng/ml and cell viability was measured using Syto-60 assay. Based on their cell viability, the cell lines were classified into resistant (red), partially sensitive (orange) and sensitive (green). Cell lines were western blotted to probe the expression of BAP1 protein expression. […] Three BAP1 wild-type cell lines (MPP-89, H2869 & H2818) and four BAP1 mutant cell lines (H2722, H2461, H28 and H2731) were treated with TRAIL (0-1000 ng/ml) for 24 hours and cell death quantified using an Annexin V/DAPI cell death assay.
as §5, with “Cells were then re-suspended in 1× Annexin V binding buffer with 10 μl/1 ml concentration of Annexin V-647 antibody (Invitrogen) and incubated for 15 minutes at room temperature. DAPI (41 g/ml) was then added to each sample before flow cytometry analysis as below.” left out

A further assay deals with NCI-H28. Nature of the assay: rTRAIL response, viability assay, NCI-H28. The format is cell-based, Human. The note with it: BAP1 Essential Splice, heterozygous. Here is the method: as §2, §3, §4
The next assay has as its system NCI-H2052. Nature of the assay: rTRAIL response, viability assay, NCI-H2052. The following applies: BAP1 Wild-type. Format: cell-based, Human. On the procedure: as §2, §3, §4
The next assay relates to MPP-89. Nature of the assay: rTRAIL response, viability assay, MPP-89. Format: cell-based, Human. The following applies: BAP1 Wild-type. Here is the method: as §2, §3, §4

B1: rTRAIL: recombinant protein that activates the TRAIL pathway by binding to TRAIL-R1 (DR 4) and TRAIL-R2 (DR 5) (protein, UniProt P50591 1-281, looked up)
Tumor necrosis factor ligand …: MAMMEVQGGPSLGQTCVLIVIFTVLLQSLCVAVTYVYFTNELKQMQDKYSKSGIACFLKEDDSYWDPNDEESMNSPCWQVKWQLRQLVRKMILRTSEETISTVQEKQQNISPLVRERGPQRVAAHITGTRGRSNTLSSPNSKNEKALGRKINSWESSRSGHSFLSNLHLRNGELVIHEKGFYYIYSQTYFRFQEEIKENTKNDKQMVQYIYKYTSYPDPILLMKSARNSCWSKDAEYGLYSIYQGGIFELKENDRIFVSVTNEHLIDMDHEASFFGAFLVG
On to B1, for which the “response to TRAIL (viability)” value in the assay on BB65RCC and with 769P was “resistant” each time. The rTRAIL response entry in the assay with H2795 is “Sensitive*”; in the assay with H2803 it was “Resistant”; in the assay on MSTO-211H it was “Sensitive**”; with H513 (BAP1 Wild-type), “Resistant”; in the assay with H2722, “Resistant”; with NCI-H2452, “Resistant”. Moreover, the rTRAIL response entry in the assay on H2461 is recorded as “Sensitive”; with H2373 it was “Resistant”; in the assay on NCI-H28, “Sensitive”; in the assay with NCI-H2052 it was “Resistant”; in the assay with MPP-89, “Resistant”. Besides, in the assay on H2818, the “TRAIL sensitivity after ablation of BAP1 with lentiviral shRNA vs parental line” value was “shift towards increased sensitivity”. The “response to rTRAIL (viability)” value in the assay on HCC1187 is on record as “sensitivity”. In addition, in the assay with H513 (BAP1 wild-type and ASXL3 mutant (truncating mutation)), the TRAIL sensitivity entry is reported as “sensitive”. Besides, in the assay with NCI-H226 (100 ng/ml, 24 hours, untransduced, BAP1-expressing and catalytically dead BAP1-expressing H226), the “sensitivity of H226 cells to cell death-inducing ligand, dependence on BAP1 catalytic domain” value is reported as “regulates the sensitivity”. In addition, in the assay on NCI-H226 (BAP1 expressing H226 cell line, dose range of TRAIL), the “cell death relative to BAP1 null line” value is reported as “significantly reduced”. Further, in the assay on NCI-H226 (BAP1 null NCI-H226, dose range of TRAIL), the cell death result was “increased cell death”. Further, the “fraction of cells stained with Annexin V” value in [1] is listed as “increased fraction of cells stained with the apoptotic marker Annexin V”.
